The nanobody polyreactivity screen of Harvey et al. (2022)

Experiment: yeast display, Sf9 membrane polyspecificity reagent, FACS + sequencing; frameworks hold sequencing errors
Method in brief: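 Nanobodies came from a synthetic yeast display library in Saccharomyces cerevisiae BJ5465, induced with galactose for 36–48 hours and stained for 1 hour at 4 °C with 10% biotinylated, detergent-solubilized Sf9 membrane reagent. Cells were enriched on streptavidin microbeads and then FACS-sorted, with low and high (top ~1%) gates set on anti-HA fluorescence for expression and streptavidin fluorescence for reagent binding. Each polyreactivity label reflects the gate a clone came from. Genes were amplified by colony PCR, sequenced by MiSeq 2 × 250 and filtered by CDR length.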

| Sequence | polyreactivity (PSR sort gate) |
| --- | --- |
| QVQLVESGGGLVQAGGSLRLSCAASGSTFYRYAMGGYRPAPGKEREFVAAISGSGGSTRYADSVKGRFTISRDNAKNTVYLQMNSLKPEDTAVYYCAARSRYGYITFDYWGQGTQVTVSS | high polyreactivity |
| QVQLVESGGGLVQAGGSLRLSCAASGSTFYRYAMGWYRPAPGKERELVAAITSAGSTNYADSVKGRFTISRDNAKNTVYLQMNSLKPEDTAVYYCAKDLTRWGYNEYDYWGQGSQVTVSS | low polyreactivity |
| QVQLVESGGGLVQAGGSLRLSCAASGSTFYRYAMGWYRQAPGKEREFVAAISGSGGSTRYADSVKGRFTISRDNAKNTVYLQMNSLKPEDTAVYYCAARSRDGYITFDYWGQGTQVTVSS | high polyreactivity |
| QVQLVESGGGLVQAGGSLRLSCAASGSTFYRYAMGWYRQAPGKERELVAAISSDGTTYYADSVKGRFTISRDNAKNTVYLQMNCLNPVDTAVYYCAKERSRYYPYDYWGQGTQVTVSS | high polyreactivity |
| QVQLVESGGGLVQAGGSLRLSCAASGSTFYRYAMGWYRQAPGKERELVAAISSGGRTYYADSVKGRFTISRDNAKNTVYLQMNSLKPEDTAVYYCATSWTFRQGYNYWGQGTQVTVSS | high polyreactivity |
| QVQLVESGGGLVQAGGSLRLSCAASGSTFYRYAMGWYRQAPGKERELVAAISSSGGSTYYADSVKGRFTISRDNAKNTVYLQMNSLKPEDTAVYYCNADVHSQYDYWGQGTQVTVSS | low polyreactivity |
| QVQLVESGGGLVQAGGSLRLSCAASGSTFYRYAMGWYRQAPGKERELVAAISTRSGSTYYADSVKGRFTISRDNAKNTVYLQMNSLKPEDTAVYYCAADGHKKTARKYYYWGQGTEVTVSS | low polyreactivity |
| QVQLVESGGGLVQAGGSLRLSCAASGSTFYRYAMGWYRQAPGKERELVAAISWDGGRTYYADSVKGRFTISRDNAKNTVYLQMNSLKPEDTAVYYCNARSSQYLGRYDYWGQGTQVTVSS | high polyreactivity |
| QVQLVESGGGLVQAGGSLRLSCAASGSTFYRYAMGWYRQAPGKERELVARIRLSGTSTYYADSVKGRFTISRDNAKNTVYLQMNSLKPEDTAVYYCAAELYSRNWRSQYDYWGQGSQVTVSS | high polyreactivity |
| QVQLVESGGGLVQAGGSLRLSCAASGSTFYRYAMGWYRQAPGKERELVATIRSSGDSTNYADSVKGRFTISRDNAKNTVYLQMNSLKPEDTAVYYCAKYGKYTWRQGGYWGQGTQVTVSS | high polyreactivity |
| QVQLVESGGGLVQAGGSLRLSCAASGSTFYRYAMGWYRQAPGKETELVAAITWRGGSTYYADSVKGRFTISRDNAKNTVYLQMNSLKPEDTAVYYCAAAKYRRGTRYYYWGQCTQVTVSS | high polyreactivity |
| QVQLVESGGGLVQAGGSLRLSCAASGSTFYRYPMGWYRQAPGKEREFVAAISGSGGSTRYADSVKGRFTISRDNAKKTVYLQMNSLKPEDTAVYYCAARSRYGYITFDYWGQGTQVTVSS | high polyreactivity |
| QVQLVESGGGLVQAGGSLRLSCAASGSTFYSNAMGWYRQAPGKERELVAGISGSGGSTYYADSVKGRFTISRDNAKNTVYLQMNSLKPEDTAVYYCNARKTRSYFRFDSWGQGTQVTVSS | low polyreactivity |
| QVQLVESGGGLVQAGGSLRLSCAASGSTFYSNVMGWYRQAPGKERELVAAISRSGGSTYYADSVKGRFTISRDNAKNTVYLQMNSLKPEDTAVYYCAAEREVGDAYDYWGQGTQVTVSS | high polyreactivity |
| QVQLVESGGGLVQAGGSLRLSCAASGSTFYSYAMGWYRQAPGKDRELVAAISSSSGTTYYADSVKGRFSISRDNAKTTVYLQMNSLKPEDTAVYYCNRGRRYSHKYDYWGQGTQVTVSS | high polyreactivity |
| QVQLVESGGGLVQAGGSLRLSCAASGSTFYSYAMGWYRQAPGKEREFVAAIRYSGGRTYADSVKGRFTISRDNAKNTVYLQMNSLKPEDTAVYYCAAVYYSYRWPYDYWGQGTQVTVSS | high polyreactivity |
| QVQLVESGGGLVQAGGSLRLSCAASGSTFYSYAMGWYRQAPGKERELVAAITSGGSTNYADSVKGRFTISRDNAKNTVYLQMNSLKPEDTAVYYCARKYWHRSYGYDYWGQGTQVTVSS | low polyreactivity |
| QVQLVESGGGLVQAGGSLRLSCAASGSTFYSYAMGWYRQAPGTERELVAAITSRGDRTYYADSVKGRFTISRDNAKNTVYLQMNSLKPEDTAVYYCAAEQSWQGYAYYYWGQGTQVTVSS | high polyreactivity |
| QVQLVESGGGLVQAGGSLRLSCAASGSTFYSYVMGWYRQAPGKERELVAAITYSGGRTYYADSVKGRFTISRDNAKNTVYLQMNSLKPEDTAVYYCAKRVFNYQRYDYWGQGTQVTVSS | high polyreactivity |
| QVQLVESGGGLVQAGGSLRLSCAASGSTFYTNAMGWYRQAPGKEREFVAAISWSGSSTYADSVKGRFTISRDNAKNTVYLQMNSLKPEDTAVYYCAADWFKLRTDYYWGQGTQVTVSS | low polyreactivity |
| QVQLVESGGGLVQAGGSLRLSCAASGSTFYTNAMGWYRQAPGKERELVAAISASVGSTYYADSVKGRFTISRDNAKNTVYLQMNSLKPEDTAVYYCAADRGFYYEYDYWGQGTQVTVSS | low polyreactivity |
| QVQLVESGGGLVQAGGSLRLSCAASGSTFYTNAMGWYRQAPGKERELVAAISASVGSTYYADSVKGRFTISRDNAKNTVYLQMNSLKPEDTAVYYCAAQYTYLLFASLPDYDYWGQGTQVTVSS | low polyreactivity |

| Sequence | polyreactivity (PSR sort gate) |
| --- | --- |
| QVQLVESGGGLVQAGGSLRLSCAASGSTFYTNAMGWYRQAPGKERELVAAISGSGGSTNYADSVKGRFTISRDNAKNTVYLQMISLKPEDTAVYYGAADGSNYSGSVAAFPYRVDYWGQGTQVNVSS | low polyreactivity |
| QVQLVESGGGLVQAGGSLRLSCAASGSTFYTNAMGWYRQAPGKERELVAAISGSGGSTYYADSVKGRFTISRDNAMNTVYLQMNSLKPEDTAVYYCADRSRYYDTRFDYWGQGTQVTVSS | low polyreactivity |
| QVQLVESGGGLVQAGGSLRLSCAASGSTFYTNAMGWYRQAPGKERELVAAISNAGSTYYADSVKGRFTISRDNAKNTVYLQMNSLKPEDTAVYYCAADPIGLSSLWFRYSVSDVDYWGQGTQVTVSS | low polyreactivity |
| QVQLVESGGGLVQAGGSLRLSCAASGSTFYTYAMGWYRQAPGKERELVAAIRGRGGRTYYADSVKGRFTISRDNAKNTVYLQMNSLKPEDTSVYYCNADGYAYYRATTRFDYWGQGTQVTVSS | high polyreactivity |
| QVQLVESGGGLVQAGGSLRLSCAASGSTFYTYAMGWYRQAPGKERELVAAISADGGRTYYADSVKGRFTISRDNAKNTVYLQMNSLKPEDTAVYYCAAEERRWSSYRYYYWGQGTQVTVSS | high polyreactivity |
| QVQLVESGGGLVQAGGSLRLSCAASGSTFYTYTMGWYRQAPGKERELVAAITWSGGSTYYADSVKGRFTISRDNAKNTVYLQMNSLKPEDTAVYYCNADQDYQGARPSGMDYWGQGTQVTVSS | low polyreactivity |
| QVQLVESGGGLVQAGGSLRLSCAASGSTFYVNAMGCYKQAPGKEWELVAAIDGCDTYYADSVKGRFTISRDNAKKTVNLQMNSLKPDDTEVYYCAAESLPEISVGLGYWGQGTQVTVSS | low polyreactivity |
| QVQLVESGGGLVQAGGSLRLSCAASGSTFYVNAMGWNRQAPGKEREFVAAISWSGGSTYYADSVKGRFTISRDNAKNTVYLQMNSLKPEDTAVYYCAADRVRKDGVLFDYWGQGTQVTVSS | high polyreactivity |
| QVQLVESGGGLVQAGGSLRLSCAASGSTFYVNAMGWYRQAPGKERELVAAIRSSAGNTTYADSVKGRFTISRDNAKNTVYLQMNSLKPEDTAVYYCAAETFYDYGGYDYWGQGTQVTVSS | low polyreactivity |
| QVQLVESGGGLVQAGGSLRLSCAASGSTFYVNTMGWYRQAPGKERELVAVISRTGTSTYYADSVKGRFTISRDNAKNTVYFQMNCLKPEDTAVYYCAKRPLPGRPNRSILQYYYWGQVTQVTVSS | high polyreactivity |
| QVQLVESGGGLVQAGGSLRLSCAASGSTFYVYAMGWYRQAPGKERELGAAIDSGDSTNYADSVKGRVTISRDNAKNTVYLQMNSLKPEDTAVYYCAVGYWDSRYRYDWPNSDYWGQGTQVTVSS | low polyreactivity |
| QVQLVESGGGLVQAGGSLRLSCAASGSTFYVYAMGWYRQAPGKERELVAAIDGSTGSTYYADSVKGRFTISRDNAKNTVYLQMNSLKPEDTAVYYCNAESIPPYSITKFDYWGQGTQGTVSS | low polyreactivity |
| QVQLVESGGGLVQAGGSLRLSCAASGSTFYVYAMGWYRQAPGKERELVAAITRGGSTYYADSVKGRFTISRDNAKNTVYLQMNSLKPEDTAVYYCAKYLSGAADLVPEYDYWGQGTQVTVSS | low polyreactivity |
| QVQLVESGGGLVQAGGSLRLSCAASGSTFYVYAMGWYRQAPGNERELVAAITSGGSTNYADSVKGRFTISRDNAKNTVYLQMNSLKPEDTAVYYCAAQGRVWDSYGYEYVQEVTRDYWGQGTQVTVSS | low polyreactivity |
| QVQLVESGGGLVQAGGSLRLSCAASGSTFYWNAMGWYRQAPGKERELVAAIRRSSDRTYYADSVKGRFTISRDNAKNTVYLQMNSLKPEDTAVYYCAADAYYTYRLDYWGQGTQVTVSS | high polyreactivity |
| QVQLVESGGGLVQAGGSLRLSCAASGSTFYWYAMGGYRQAPGKERELVAAISGSGGRTYYADSVKGRFTISRDNAKNTVYLQMYSLKPEDTAGYYCAADTKFYNYYYWGQGTQVTVSS | high polyreactivity |
| QVQLVESGGGLVQAGGSLRLSCAASGSTFYWYAMGWYIQAPGKERELGAAIRWSGDRTYYADSVKGLFTISRDNAKNTVYLQMNSLKPEDTAVYYCAAGKGRPVGGRAYYYWGQGTQVTVSS | high polyreactivity |
| QVQLVESGGGLVQAGGSLRLSCAASGSTFYWYAMGWYRQAPGKERELVAAISRSSGSTYYADSVKGRFTISRDNAKNSVYLQMNSLKPEDTAVYYCAADYYLRSFVWTAYDSWGQGTQVTVSS | high polyreactivity |
| QVQLVESGGGLVQAGGSLRLSCAASGSTFYWYAMGWYRQAPGKERELVAAITYSSGRTYYADSVKGRFTISRDNAKNTVYLQMNSLKPEDTAVYYCGWSALNGYDYWGQGTQVTVSS | high polyreactivity |
| QVQLVESGGGLVQAGGSLRLSCAASGSTFYWYAMGWYRQAPGKERELVASISWSGGRTYYADSVKGRFTISRDTAKNTVYLQMNSLKPEDTAVYYCAARRKGRYYYWGQGTQVTVSS | high polyreactivity |
| QVQLVESGGGLVQAGGSLRLSCAASGSTFYWYAMGWYRQAPGKERELVASITRSGVRTYYADSVKGRFTISRDNAKNTVYLQMNSLKPEDTAVYYCAAERYYFPRSYRYGYWGQGTQVTVSS | low polyreactivity |
